Reference: PMC4755848 (Proteins, 2016)
Where a chain is given by its changes, count along the chain named.

How the values were obtained:
[1] = target: BaiE (bile acid 7α-dehydratase) from Clostridium hylemonae DSM15053 (Clostridium hylemonae DSM15053); assay: SEC
[2] = target: BaiE (bile acid 7α-dehydratase) from Clostridium hiranonis DSM13275 (Clostridium hiranonis DSM13275); assay: SEC
[3] = target: BaiE (bile acid 7α-dehydratase) from Clostridium scindens ATCC35704 (Clostridium scindens ATCC35704) (UniProt P19412); assay: SEC
purified protein [4] = substrate: C[C@H](CCC(=O)SCCNC(=O)CCNC(=O)[C@H](O)C(C)(C)COP(=O)(O)OP(=O)(O)OC[C@H]1O[C@@H](n2cnc3c(N)ncnc32)[C@H](O)[C@@H]1OP(=O)(O)O)[C@H]1CC[C@H]2[C@@H]3[C@H](O)CC4=CC(=O)CC[C@]4(C)[C@H]3CC[C@]12C; assay: purified protein; assay type: biochemical, [Clostridium] scindens; conditions: 20 mM Tris-HCl pH 7.3, 25 °C
purified protein [5] = substrate: C[C@H](CCC(=O)O)[C@H]1CC[C@H]2[C@@H]3[C@H](O)CC4=CC(=O)CC[C@]4(C)[C@H]3CC[C@]12C; assay: purified protein; assay type: biochemical, [Clostridium] scindens; conditions: 20 mM Tris-HCl pH 7.3, 25 °C
SEC = target: the molecule itself; assay: SEC
purified protein [6] = substrate: C[C@H](CCC(=O)SCCNC(=O)CCNC(=O)[C@H](O)C(C)(C)COP(=O)(O)OP(=O)(O)OC[C@H]1O[C@@H](n2cnc3c(N)ncnc32)[C@H](O)[C@@H]1OP(=O)(O)O)[C@H]1CC[C@H]2[C@@H]3[C@H](O)CC4=CC(=O)CC[C@]4(C)[C@H]3CC[C@]12C; assay: purified protein; assay type: biochemical, Peptacetobacter hiranonis; conditions: 20 mM Tris-HCl pH 7.3, 25 °C
purified protein [7] = substrate: C[C@H](CCC(=O)O)[C@H]1CC[C@H]2[C@@H]3[C@H](O)CC4=CC(=O)CC[C@]4(C)[C@H]3CC[C@]12C; assay: purified protein; assay type: biochemical, Peptacetobacter hiranonis; conditions: 20 mM Tris-HCl pH 7.3, 25 °C
purified protein [8] = substrate: C[C@H](CCC(=O)SCCNC(=O)CCNC(=O)[C@H](O)C(C)(C)COP(=O)(O)OP(=O)(O)OC[C@H]1O[C@@H](n2cnc3c(N)ncnc32)[C@H](O)[C@@H]1OP(=O)(O)O)[C@H]1CC[C@H]2[C@@H]3[C@H](O)CC4=CC(=O)CC[C@]4(C)[C@H]3CC[C@]12C; assay: purified protein; assay type: biochemical, [Clostridium] hylemonae; conditions: 20 mM Tris-HCl pH 7.3, 25 °C
purified protein [9] = substrate: C[C@H](CCC(=O)O)[C@H]1CC[C@H]2[C@@H]3[C@H](O)CC4=CC(=O)CC[C@]4(C)[C@H]3CC[C@]12C; assay: purified protein; assay type: biochemical, [Clostridium] hylemonae; conditions: 20 mM Tris-HCl pH 7.3, 25 °C

BaiE (bile acid 7α-dehydratase) from Clostridium hylemonae DSM15053 (enzyme)
stoichiometry N [1]: 3

BaiE (bile acid 7α-dehydratase) from Clostridium hiranonis DSM13275 (enzyme)
stoichiometry N [2]: 3

BaiE (bile acid 7α-dehydratase) from Clostridium scindens ATCC35704 (from UniProt P19412 1-166) (enzyme)
stoichiometry N [3]: 3

B1: BaiE_35704 ([Clostridium] scindens ATCC 35704) (protein)
chain: MTLEERVEALEKELQKMKDIEAIKELKGKYFRCLDGKMWDELETTLSPNIVTSYSNGKLVFHSPKEVTDYLKSTMPKEEISMHMGHTPEITIDSETTATGRWYLEDKLIFTDGKYKDVGINGGAFYTDKYEKIEGQWYILETGYVRIYEEHFMRDPKIHITMNMHK
Km (purified protein [4]): 1.2 (0.2) μM | kcat (purified protein [4]): 15 s⁻¹ | kcat/Km (purified protein [4]): 1.25e+07 M⁻¹ s⁻¹ | Km (purified protein [5]): 11.0 (1.9) μM | kcat (purified protein [5]): 18 s⁻¹ | kcat/Km (purified protein [5]): 1.6e+06 M⁻¹ s⁻¹

B2: BaiE (bile acid 7α-dehydratase) from Clostridium scindens VPI12708 (enzyme, UniProt P19412 1-166, looked up)
chain: B1 chain with K16E, T74S, K107R, E134D
stoichiometry N (SEC): 3 | Km (purified protein [4]): 4.0 (0.56) μM | kcat (purified protein [4]): 98 s⁻¹ | kcat/Km (purified protein [4]): 2.45e+07 M⁻¹ s⁻¹ | Km (purified protein [5]): 9.9 (2.1) μM | kcat (purified protein [5]): 24 s⁻¹ | kcat/Km (purified protein [5]): 2.4e+06 M⁻¹ s⁻¹

B3: BaiE_13275 (Peptacetobacter hiranonis DSM 13275) (protein)
chain: MTLEARIEALEKEIQRLNDIEAIKQLKAKYFRCLDGKLWDELETTLSPNIETSYSDGKLVFHSPKEVTEYLAAAMPKEEISMHMGHTPEITIDSENTATGRWYLEDNLIFTDGKYKNVGINGGAFYTDKYEKIDGQWYIKETGYVRIFEEHFMRDPKIHITSNMHKEK
Km (purified protein [6]): 208.0 (40.0) μM | kcat (purified protein [6]): 22.2 s⁻¹ | kcat/Km (purified protein [6]): 100000 M⁻¹ s⁻¹ | Km (purified protein [7]): 25.0 (1.8) μM | kcat (purified protein [7]): 4.4 s⁻¹ | kcat/Km (purified protein [7]): 200000 M⁻¹ s⁻¹

B4: BaiE_15053 ([Clostridium] hylemonae DSM 15053) (protein)
chain: MSIEERLEALEKEIQKMKDIEEIKKLKGQYFRCLDGKFWDELETTLSPNIVTSYSNGKLVFHGPKEVTDYFKKAMPREEISMHMGHTPEITIDSETTATGRWYLEDKLIFTEESKYAGSGVNGGAFYTDKYEKVDGKWYILETGYLRVYEEHFMRDPKIKITMNMHKTK
Km (purified protein [8]): 11.4 (1.9) μM | kcat (purified protein [8]): 12.6 s⁻¹ | kcat/Km (purified protein [8]): 1.1e+06 M⁻¹ s⁻¹ | Km (purified protein [9]): 21.0 (2.0) μM | kcat (purified protein [9]): 18.6 s⁻¹ | kcat/Km (purified protein [9]): 900000 M⁻¹ s⁻¹
